# According to PMC6529005, “FMRP - G-quadruplex mRNA - miR-125a interactions: Implications for miR-125a mediated translation regulation of PSD-95 mRNA”:
# B1: PSD-95 Q2 4-2AP (structured_RNA)
# RNA: GGGAGGGAGGGUGGG
# modifications: A4 replaced by 2-aminopurine
# B2: miR-196a-1 (ssRNA)
# RNA: UAGGUAGUUUCAUGUUGUUGGG
# B3: PSD-95 Q11234 11-2AP (structured_RNA)
# RNA: GGGAAAAGGGAGGGAUGGG
# modifications: A11 replaced by 2-aminopurine
# B4: miR-125a (ssRNA)
# RNA: UCCCUGAGACCCUUUAACCUGUGA
# Key:
# [1] = molecular target: T1, FMRP ISO1 (UniProt Q06787 1-632); assay: fluorescence titration (2AP); 150 mM KCl, 1 uM BSA; Fluorescence: 10 mM cacodylic acid pH 6.5, 150 mM KCl, 1 uM BSA, 200 nM RNA; EMSA: 0.5x TBE native gels at 4 C (5 mM KCl for PSD-95 RNAs), incubation at room te
# [2] = molecular target: T1, FMRP ISO1; assay: EMSA; 200 nM RNA, up to 1:2; Fluorescence: 10 mM cacodylic acid pH 6.5, 150 mM KCl, 1 uM BSA, 200 nM RNA; EMSA: 0.5x TBE native gels at 4 C (5 mM KCl for PSD-95 RNAs), incubation at room te
# [3] = molecular target: T1, FMRP ISO1; assay: EMSA; 200 nM RNA, up to 1:6 RNA:protein; Fluorescence: 10 mM cacodylic acid pH 6.5, 150 mM KCl, 1 uM BSA, 200 nM RNA; EMSA: 0.5x TBE native gels at 4 C (5 mM KCl for PSD-95 RNAs), incubation at room te
Binder,Kd [1],other results
B1,195 nM,
B2,,binding result [2]: no binding
B3,128 nM,
B4,,binding result [3]: no binding
